Assay results as given in patent publication US20220218805A1 (UNIVERSITY OF BRITISH COLUMBIA, published 2022).
Each block holds one binder with its values, some of them ahead of it. Ends that are not written are not given here.

Key:
tau oligomers (SynAging) [1] = biological target: T1, tau oligomers (SynAging) (UniProt P10636-8 1-441, limits assumed); assay: SPR, hybridoma supernatant over immobilized tau oligomers
T1 construct: also called misfolded oligomeric tau polypeptide
Protocol: (§1) Antibodies were tested for their ability to bind monomeric tau polypeptide as well as misfolded oligomeric tau polypeptide using surface plasmon resonance. Surface plasmon resonance measurements were performed using a Molecular Affinity Screening System (Sierra Sensors, Hamburg, Germany). Tau monomers (Stressmarq, Victoria, BC, Canada) or tau oligomers (SynAging, Vandoeuvre-les-Nancy, France) were immobilized on high amine capacity sensorchips and hybridoma supernatants (50% dilution) were injected over the immobilized surfaces at 10 μl/minute for 4 min followed by a 5 min dissociation phase. Mouse IgG1 was used as a negative control and a pan-tau reactive antibody was used as a positive control. The reverse orientation was used for purified antibodies: the mAbs were immobilized covalently on the surface of sensorchips (8000-12000 RUs) and serial dilutions of tau monomers or oligomers were injected over the surface.

[2] = biological target: T2, (3,2) cyclo(CGGGKLDFGG) (SEQ ID NO: 16) conjugated to BSA (not fully specified (residue 1); printed as cyclo(CGGGKLDFGG); also: conjugated to BSA (maleimide coupling)); assay: indirect ELISA, hybridoma supernatant on cyclic peptide-BSA
T2 construct: Screening antigen of the ELISA; also called KLDF (3,2); cyclic peptide-BSA
T2 peptide: cyclo(CGGGKLDFGG)
Protocol: (§2) Tissue culture supernatants from the hybridomas were tested by indirect ELISA on screening antigen (cyclic peptide-BSA and linear peptide-BSA) and were probed for both IgG and IgM antibodies using a Goat anti-IgG/IgM(H&L)-HRP secondary antibody and developed with TMB substrate.

tau oligomers (SynAging) [3] = biological target: T1, tau oligomers (SynAging); assay: SPR, oligomer RU / monomer RU (reference: tau monomers)
Protocol: as §1

[4] = biological target: T3, tau monomers (Stressmarq) (UniProt P10636-8 1-441, limits assumed); assay: SPR, hybridoma supernatant over immobilized tau monomers
T3 construct: also called monomeric tau polypeptide
Protocol: as §1

[5] = biological target: T4, Linear CGGGKLDFGG (SEQ ID NO: 16) conjugated to BSA (also: conjugated to BSA); assay: indirect ELISA, hybridoma supernatant on linear peptide-BSA
T4 construct: Screening antigen of the ELISA; also called corresponding linear peptide (3,2); linear peptide-BSA
T4 peptide: CGGGKLDFGG
Protocol: as §2

[6] = biological target: T5, (3,1) cyclo(CGGGKLDFG) (SEQ ID NO: 15) conjugated to BSA (not fully specified (residue 1); printed as cyclo(CGGGKLDFG); also: conjugated to BSA (maleimide coupling)); assay: indirect ELISA, hybridoma supernatant on cyclic peptide-BSA
T5 construct: Screening antigen of the ELISA; also called KLDF (3,1); cyclic peptide-BSA
T5 peptide: cyclo(CGGGKLDFG)
Protocol: as §2

[7] = biological target: T6, (4,1) cyclo(CGGGGKLDFG) (SEQ ID NO: 19) conjugated to BSA (not fully specified (residue 1); printed as cyclo(CGGGGKLDFG); also: conjugated to BSA (maleimide coupling)); assay: indirect ELISA on other cyclic peptide-BSA conjugates
T6 construct: Screening antigen of the ELISA; also called KLDF (4,1); cyclic peptide-BSA
T6 peptide: cyclo(CGGGGKLDFG)

[8] = biological target: T2, (3,2) cyclo(CGGGKLDFGG) (SEQ ID NO: 16) …; assay: as above
[9] = biological target: T7, Linear CGGGKLDFG (SEQ ID NO: 15) conjugated to BSA (also: conjugated to BSA); assay: indirect ELISA, hybridoma supernatant on linear peptide-BSA
T7 construct: Screening antigen of the ELISA; also called corresponding linear peptide (3,1); linear peptide-BSA
T7 peptide: CGGGKLDFG
Protocol: as §2

[10] = biological target: T6, (4,1) cyclo(CGGGGKLDFG) (SEQ ID NO: 19) …; assay: indirect ELISA, hybridoma supernatant on cyclic peptide-BSA
Protocol: as §2

[11] = biological target: T8, Linear CGGGGKLDFG (SEQ ID NO: 19) conjugated to BSA (also: conjugated to BSA); assay: indirect ELISA, hybridoma supernatant on linear peptide-BSA
T8 construct: Screening antigen of the ELISA; also called corresponding linear peptide (4,1); linear peptide-BSA
T8 peptide: CGGGGKLDFG
Protocol: as §2

T3 sequence (P10636 other isoform, or with tags, fused parts or gaps limits assumed): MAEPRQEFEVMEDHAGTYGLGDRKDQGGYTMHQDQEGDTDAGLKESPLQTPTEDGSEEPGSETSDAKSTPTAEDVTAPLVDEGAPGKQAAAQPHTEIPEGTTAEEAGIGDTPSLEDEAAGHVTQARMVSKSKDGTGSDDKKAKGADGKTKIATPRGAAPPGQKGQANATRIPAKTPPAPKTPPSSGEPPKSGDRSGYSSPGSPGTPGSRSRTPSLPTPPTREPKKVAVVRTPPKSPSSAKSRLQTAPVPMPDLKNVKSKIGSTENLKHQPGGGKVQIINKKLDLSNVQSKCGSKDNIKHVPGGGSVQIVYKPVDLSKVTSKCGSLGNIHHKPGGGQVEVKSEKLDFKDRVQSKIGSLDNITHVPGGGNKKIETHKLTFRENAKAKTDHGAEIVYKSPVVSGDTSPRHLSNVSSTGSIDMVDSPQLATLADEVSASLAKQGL
T1 sequence (P10636 other isoform, or with tags, fused parts or gaps limits assumed): as above

binding response (RU) (tau oligomers (SynAging) [1]): 17 RU
OD [2]: 1.64 OD
Ratio (O/M) (tau oligomers (SynAging) [3]): 2.6
binding response (RU) [4]: 6.5 RU
OD [5]: 0.232 OD
B1: Ab11 (clone 9E4) (antibody, V domains shown)
VH: DVQVQESGPGLVKPSQSLSLTCTVTGYSITSDYAWTWIRQFPGNKLEWMGYISYSGSTSYNPSLKSRLSITRDTSKNQFFLQLNSVTTEDTATYYCAAYYRYGLAYFAYWGQGTLVTVSA
VL: not shown
notes: kappa light chain; The clone name 9E4 is also printed for Ab27; also called 9E4.1

binding response (RU) (tau oligomers (SynAging) [1]): 14.7 RU
OD [2]: 1.29 OD
Ratio (O/M) (tau oligomers (SynAging) [3]): 3.1
binding response (RU) [4]: 4.8 RU
B2: Ab13 (clone 10C9) (antibody, V domains shown)
VH: EVQLQQSGTVLARPGASVKMSCKASGYRFTSYWMYWVKQRPGQGLEWIGAIYPGNSDTIYNQRFKGKATLTAVTSASTAYMELSSLANEDSAVYFCTRPYFDSWGQGTTLTVSS
VL: not shown
notes: tested as hybridoma supernatant; kappa light chain

binding response (RU) (tau oligomers (SynAging) [1]): 14.5 RU
OD [2]: 1.74 OD
Ratio (O/M) (tau oligomers (SynAging) [3]): 2.9
binding response (RU) [4]: 5 RU
OD [5]: 0.784 OD
B5: Ab12 (clone 10B10) (antibody, V domains shown)
VH: QIQLVQSGPELKKPGETVKISCKASGYTFTNFGMNWVKQAPGKGLKWMGWINTFTGEPTYVDDFKGRFAFSLETSATTAYLQINNLKNEDTATYFCARSPGRVYTLDYWGQGTSVTVSS
VL: DIVMSQSPSSLAVSAGEKVTMSCKSSQSLLNSRTRKNYLAWYQQKPGQSPKLLIYWASTRESGVPDRFTGSGSGTDFTLTISSVQAEDLAVYYCKQSYNLYTFGGGTKLEIK
notes: tested as hybridoma supernatant; kappa light chain; also called 10B10.1

binding response (RU) (tau oligomers (SynAging) [1]): 18 RU
OD [2]: 1.7 OD
Ratio (O/M) (tau oligomers (SynAging) [3]): 2.6
binding response (RU) [4]: 6.9 RU
OD [5]: 0.788 OD
B8: Ab14 (clone 10D4) (antibody, V domains shown)
VH: DVQLQESGPGLVKPSQSLSLTCTVTGFSITSDYAWNWIRQFPGNKLEWMGFIRYSGNTRFNPSLKGRGSITRDTSKNQFFLQLNSVTTEDTATYYCASTLEDSYWYFDVWGAGTTVTVSS
VL: DVLMTQTPLSLPVSLGDQASISCRSSQSIVHTNGNTYLEWYLQKPGQSPKLLIYKVSNRFSGVPDRFSGSGSGTDFTLKISRVEAEDLGVYYCFQGSHVPLTFGAGTKLELK
notes: as for B2

The remaining lines, values behind:

B3: Ab29 (clone 12D11) (antibody, V domains shown)
VH: QIQLVQSGPELKKPGETVKISCKASGYTFTNYGMNWVKQAPGKGLKWMGWINTYSGEPTYVDDFKGRFAFSLETSASTAYLQINNLKNEDMATYFCARSPGAYYTLDYWGQGTSVTVSS
VL: DIVMSQSPSSLAVSAGEKVTMSCKSSQSLLNSRTRKNYLAWYQQKPGQSPKLLIYWASTRESGVPDRFTGSGSGTDFTLTISSVQAEDLAVYYCKQSYNLYTFGGGTKLEIK
notes: as for B2
binding response (RU) (tau oligomers (SynAging) [1]): 6.2 RU
OD [6]: 1.35 OD
Ratio (O/M) (tau oligomers (SynAging) [3]): 2.1
binding response (RU) [4]: 3 RU
binding result [7]: no binding
binding result [8]: no binding

B4: Ab23 (clone 8E11) (antibody, V domains shown)
VH: QVQLQQSGAELVRPGSSVKISCKASGYAFSSYWMNWVKQRPGQGLEWIGQIYPGDGDTNYNGKFKGKATLTADKSSSTAYMQLSSLTSEDSAVYLCASQIYDGYYTFTYWGQGTLVTVSA
VL: DIVMSQSPSSLAVSAGEKVTMSCKSSQSLLNSRTRKNYLAWYQQKPGQSPKLLIYWASTRVSGVPDRFTGSGSGTDFTLTISSVQAEDLAVYYCKQSYNLWTFGGGTKLEIK
notes: kappa light chain; also called 8E11.1
binding response (RU) (tau oligomers (SynAging) [1]): 10.2 RU
OD [6]: 1.19 OD
Ratio (O/M) (tau oligomers (SynAging) [3]): 2.2
binding response (RU) [4]: 4.6 RU
OD [9]: 1.69 OD

B6: Ab10 (clone 9D12) (antibody, V domains shown)
VH: QIQLVQSGPELKKPGETVKISCKASGYTFTNYGMNWVKQAPGKGLKWMGWINTYTGEPTYTDDFKGRFAFSLETSASTAYLQINNLKNEDTATYFCGRGIRDYYTMDYWGQGTSVTVSS
VL: DIVMSQSPSSLAVSAGEKVTMSCKSSQSLLNNRTRKNYLAWYQQKPGQSPKLLIYWASTRESGVPDRFTGSGSGTDFTLTISSVQAEDLAVYYCKQSYNLYTFGGGTKLEIK
notes: kappa light chain
binding response (RU) (tau oligomers (SynAging) [1]): 14 RU
OD [2]: 1.6 OD
Ratio (O/M) (tau oligomers (SynAging) [3]): 2.7
binding response (RU) [4]: 5.2 RU
OD [5]: 0.78 OD

B7: Ab15 (clone 10D9) (antibody, V domains shown)
VH: QVQLQQSGAELVKPGASVKLSCKASGYTFTSYYMFWVKQRPGQGLEWIGEINPSNGGSNFNEKFKSKATLTVDKSSSTAYMQLSSLTSEDSAVYYCTRGAFWGQGTLVTVSA
VL: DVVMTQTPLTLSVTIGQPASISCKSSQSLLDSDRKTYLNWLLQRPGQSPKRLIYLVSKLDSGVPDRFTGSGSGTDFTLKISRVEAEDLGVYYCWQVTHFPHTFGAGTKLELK
notes: as for B2
binding response (RU) (tau oligomers (SynAging) [1]): 10.9 RU
OD [2]: 1.58 OD
Ratio (O/M) (tau oligomers (SynAging) [3]): 3.7
binding response (RU) [4]: 3 RU
OD [5]: 0.774 OD

B9: Ab21 (clone 2C6) (antibody, V domains shown)
VH: EVQLQQSGAELVKPGASVKLSCTASGFNIKDTHMHWVKQRPEQGLEWIGKIDPSNGNTQYDPKFQGKATITADTSSNTAYLQLSSLTSEDTAVYYCATGFAYWGQGTLVTVSA
VL: DIQMTQSPASLSASVGETVTITCRASGNIHNYLAWYQQKQGKSPQLLVYNAKTLADGVPSRFSGSGSGTQYSLKINSLQPEDFGSYYCQHFWYTPWTFGGGTKLEIK
notes: tested as hybridoma supernatant; kappa light chain; also called 2C6.1
binding response (RU) (tau oligomers (SynAging) [1]): 6.6 RU
OD [6]: 1.21 OD
Ratio (O/M) (tau oligomers (SynAging) [3]): 1.9
binding response (RU) [4]: 3.5 RU

B10: Ab3 (clone 2C7) (antibody, V domains shown)
VH: QVTLKESGPGILKPSQTLSLTCSFSGFSLSTSGMGVGWIRQPSGKGLEWLAHIWWDDDKYYNPSLKNRLTISKDTSRNQVFLKITSVDTADTATYYCVRSIYYYDSSPYYYVMDYWGQGTSVTVSS
VL: DIVMTQSHKFMSTSVGDRVSITCKASQDVSIAVAWYQQKPGQSPKLLIYSASYRNTGVPDRFTGSGSGTDFTFTISSVQAEDLAVYYCQQHYSSPLTFGAGTKLELK
notes: as for B2
binding response (RU) (tau oligomers (SynAging) [1]): 269 RU
OD [10]: 1.79 OD
Ratio (O/M) (tau oligomers (SynAging) [3]): 1.3
binding response (RU) [4]: 201 RU
OD [11]: 1.61 OD
